# B1: EEF1A2 binding protein-like (protein)
# chain: MWKKKSKLTDQTATGQVGIKKRSKVPGVMITQYVEKIPDGKSHPDFTRKPIALTIQEGKFAFFKALVIGDPEPTVTWGRNNGDVSDTSKYVTKYDPATREHLFEMANVKPEQADTYKCFAANEFGRAVVTVVLNVIEVGFKKAQADSQVQPEAAVADFKSVLKRKSKIQPKMEKKEDGEIDPRFWELLISADKKDYESLMLEFGVTDFRFMLKTLNEIKKEREEEQAQFIENLANLKPIEVGPDGCATFSIDMDLIEQSSRIFLYKDGVMIPYSKELGDTIKHSLKIVGRKYQFSIRDLFPDDAGLYQVDVEDVNVFSTDFKIPMVDFLVKIQECKAMEREDAVFECVLSQPFGKIMWVGKNLPLEAGDKYDIEVSEDKLIHRLIIKDVAMVDKGIYAAVAGIKSCNAFLVVEADKGEPGKKKQRKTTRAGGAGVDLTAIAQEQAVKNTADREVLKEKVKAINDERAANATAAPETSAEAKAKVKVVEASQTGAPKQGPAVKGSDHKSVDNEGYSIKSGLSDVFALRGKKGELVCEMSHEVDGAWFKDGEKLSTTDGIAIVKDGTRHTMTIHSSSEDDTGVYHIEAGGFKSEAKVTVGELPAIDADDLHKFSKPVTIKVGQNASWKMPYTPQDNLEVKWFKDGKELKDGGGVKLVKEVKHSRLLLRECLRSDAGEIKIQLKNPFGTIEATSRLIVLDKPGPPEGPVEILETTSTVIELQWGAPKDDGGSPVTNYIIERQQLGQTVWKKMGDVAADKTTYRDRNVVHGKLYIYNIYAVNPEGTSDALQTEETMAGVLIFAGRPGAPKVVSASKTCINLKWEPPEDDGGIKIDGYQLEKRKKDTAQWIALNPVTEPIEVLEYAVKDVVEGAEYEFRVSAINVSGAGEFSLPSVMVTAKNPNMRPTFKDPEDFMVIRAGNSVRIKVLYEAEPPPEITWMKDNEPVSSFIQIINTEGCSQLVIPSTKRSDSGNYTIVAKNKVGEASFDIEVLVTDEPKPPGAVELEQIVHGKVIVSWEASPDQELDNRLYYMVAEHDSSTRMWHTVADRIFDNSYTANNIMPGREYHFKIYAKNDMGMSDPSMSPTWGINSNRIPINTNTPVEVSFEKPPSVLVPLKMHSPPKGFQMYMTCAIRGCPTPSVTWHLNNVCINGDSNYYITNSYGVCSMYILRVRPKDAGEYKVVAVNSFGKAECSTKLVVKD
# modifications: EEF1A2 binding protein-like
# B2: Serotransferrin (protein)
# chain: MKLLLVSALLGCFATVYAAPAEGMVRWCVKSEKELKKCHDLAANVAGFSCVRRDDSLECIQAIKREEADAITLDGGDIYIAGLHNYNLQPIIAEDYGEDSDTCYYAVAVAKKGTEFGFLDLRGKKSCHTGLGKSAGWNIPIGTLVTVGQIQWAGIEDRPVESAVSDFFNASCAPGANRDSQLCQLCMGDCSRSHNEPYYDYSGAFQCLKDGAGEVAFIKHLTVPAAEKASYELLCKDNTRAPIDSYKTCHLARVPAHAVVSRKDPRLANLIYSKLMAVTNFNLFSSDGYAAKNLMFKDSTQNLVQLPMTTDSFLYLGAEYMSTIRSLTKAQATGVTSRAIKWCAVGHKEKVKCDAWTINSFTDGDSRIECQDAPTVDECIKKIMRKEADAIAVDGGEVFTAGKCGLVPVMVEQYDEVRCSAPGEASSYFAVAVAKRGSGLTWTTLKGKRSCHTGLGRTAGWNIPMGLIHRRTMNCDFTTYFSKGCAPGFEVDSPFCAQCKGSGKSVGGDGSKCKASSEEQYYGYNGAFRCLVEDAGDVAFIKHTIVPEMTDGSGPVWAQNLMSSDFELLCQDGTTKPVTHFRECHLAKVPAHAVITRPESRGEVVSILLEQQARFGSSGSDSSFNMFKPDFGKNLLFKDSTKCLQEIPSGTKFQGFLGEEYMIAMQSLRECSNSTSDLEKACTFHSC
# modifications: Serotransferrin
# B3: Alpha-1,4-glucan phosphorylase (protein)
# chain: MSKPLSDHDRKKQISVRGLAGVENVAELKVAFNRHLHFTLVKDRNVASKRDYYFALANTVRDHLVGRWIRTQQYYYEKDPKRVYYISLEFYMGRTLQNTMVNLALENACDEAIYQLGLDMEELEDMEEDAGLGNGGLGRLAACFLDSMASLGLAAYGYGIRYEFGIFNQKIVNGWQVEEADDWLRYGNPWEKARPEYMRPVKFYGRTEHTPEGVKWVDTQVVLALPYDTPIPGYRNNIVNTMRLWSAKAPCDFNLKDFNVGGYIQAVLDRNLCENISRVLYPNDNFFEGKELRLKQEYFVVAATLQDIVRRFKASKFGSREIVRTDFAQLPNKVAIQLNDTHPAMAIPELMRVLVDEEKLEWDKAWDVCVRTCAYTNHTVLPEALERWPIDLFHHLLPRHLEIIYEINRRFLQYVASKFPGDNDRLRRMSLIEEGECKKVNMAHMCIVGSHAVNGVARIHSEILVATLFKDFYELDPHKFQNKTNGITPRRWLVMCNPGLAEVIAERIGEEFVRDLDQLKKLLKFIDDDAFIRDIAKVKQENKLKFAVHLEEHYKVKINPQSMFDFQVKRIHEYKRQLLNCLHMITYYNRIKKEPNKHWTPRTIMVGGKAAPGYHTAKMIIRLITAIGEVVNHDPVIGDRLKVIFLENYRVTLAEKAIPSADLSEQISTAGTEASGTGNMKFMLNGALTIGTMDGANVEMAEEAGEKNLFIFGMRVEEVDAMDAGKGYHASEYYNRIPELKQAMDQISGGFFSHKQPDLFKELVDLLMHHDRFKVFADYEAYIKSQDKVNELYKKPKEWTKMVIHNIAGCGKFSSDRTISQYAREIWGMEPSLEKIPAPDEQLK
# modifications: Alpha-1,4 glucan phosphorylase
# Tested on: IgE antibody in the serum of a fish-allergic patient
# Assay: Immunoblotting of two-dimensional electrophoresis patterns of fish meat proteins with patient serum
# Format: binding, human
# Conditions: spots in two-dimensional electrophoresis gel of proteins in fish; patients diagnosed with immediate-type allergy
# Procedure: Proteins contained in fish were analyzed by the aforementioned technique to identify antigens of an allergy to fish. To be specific, proteins were extracted from fish meat and subjected to two-dimensional electrophoresis under the conditions described below.
# The electrophoresis in the first dimension was isoelectric focusing, which was performed using isoelectric focusing gels with a gel-strip length of 5 to 10 cm and a gel pH range of 3 to 10. The pH gradient of the gels in the direction of electrophoresis was as follows: with the total gel-strip length being taken as 1, the gel-strip length up to pH 5 was “a=0.15 to 0.3”, the gel-strip length from pH 5 to 7 was “b=0.4 to 0.7”, and the gel-strip length above pH 7 was “c=0.15 to 0.3”. More specifically, the isoelectric focusing was performed using the IPG gels, Immobiline Drystrip (pH3-10NL), produced by GE Healthcare Bio-Sciences Corporation (hereinafter abbreviated as “GE”). The electrophoresis system used was IPGphor produced by GE. The maximum current of the electrophoresis system was limited to 75 μA per gel strip. The voltage program adopted to perform the first-dimensional isoelectric focusing was as follows: (1) a constant voltage step was performed at a constant voltage of 300 V until the volt-hours reached 750 Vhr (the current variation width during electrophoresis for 30 minutes before the end of this step was 5 μA); (2) the voltage was increased gradually to 1000 V for 300 Vhr; (3) the voltage was further increased gradually to 5000 V for 4500 Vhr; and then (4) the voltage was held at a constant voltage of 5000 V until the total Vhr reached 12000.
# The electrophoresis in the second dimension was SDS-PAGE, which was performed using polyacrylamide gels whose gel concentration at the distal end in the direction of electrophoresis was set to 3 to 6% and whose gel concentration at the proximal end was set to a higher value than that at the distal end. More specifically, the SDS-PAGE was performed using NuPAGE 4-12% Bris-Tris Gels (IPG well, Mini, 1 mm) produced by Life Technologies. The electrophoresis system used was XCell SureLock Mini-Cell produced by Life Technologies. The electrophoresis was run at a constant voltage of 200 V for about 45 minutes using an electrophoresis buffer composed of 50 mM MOPS, 50 mM Tris base, 0.1% (w/v) SDS and 1 mM EDTA.
# Identification of antigens by immunoblotting was carried out by taking all the steps up to the step of “Second-dimensional SDS-PAGE” as described above in Example 1, followed by the steps of “Transfer to membrane”, “Immunoblotting” and “Analysis” as described below.
# To be specific, proteins in the second-dimensional electrophoresis gels were transferred to a membrane (PVDF membrane) according to the following procedure. • (1) The PVDF membrane was immersed in 100% methanol followed by milliQ water, and then moved into the transfer buffer to hydrophilize the PVDF membrane. • (2) After sponge, filter paper, the second-dimensional electrophoresis gels treated by second-dimensional SDS-PAGE, the hydrophilized PVDF membrane, filter paper, and sponge were put in place in this order, the transfer system was energized at a constant voltage of 30 V for one hour. Immunoblotting
# Immunoblotting of the membrane was carried out using, as a primary antibody, a serum sample from patient 1 with a fish allergy or a serum sample from a non-fish-allergic subject. This fish-allergic patient 1 was a patient diagnosed with immediate-type allergy to fish. […]
row,Molecule,specific binding to IgE antibodies from fish-allergic patients
1,B1,specific binding to IgE antibodies
2,B2,specific binding to IgE antibodies
3,B3,specific binding to IgE antibodies

# Source: patent US12630594B2, “Allergy antigen and epitope for same” (HOYU CO., LTD., priority 2017, dated 2026)
